Data published in patent US20230340123A1 (published 2023).

How the values were obtained:
[1] = biological target: T1, cynomolgus BTLA (analyte in Bio-Layer Interferometry) (cynomolgus, UniProt A0A2K5W7M7 31-151); test: Bio-Layer Interferometry (Octet), antibody captured by anti-human-Fc, BTLA in solution, 1:1 model
T1 construct: also called Cyno BTLA

recombinant human BTLA = recombinant human BTLA (human, UniProt Q7Z6A9 31-151, limits assumed); test: as above
human BTLA-human Fc = biological target: T2, human BTLA-human Fc (human, UniProt Q7Z6A9 31-151, limits assumed); test: blocking ELISA: BTLA-human Fc binding to coated human HVEM-ratIgG2a
T2 construct: not shown: human Fc

cynomolgus BTLA(ECD)-HIS = biological target: T3, cynomolgus BTLA(ECD)-HIS (cynomolgus, UniProt A0A2K5W7M7 31-157); test: ELISA, BTLA(ECD)-HIS coated, chemiluminescence (RLU)
T3 construct: extracellular domain; also called Cyno BTLA; not shown: HIS tag
T3 sequence (A0A2K5W7M7 entry or part of it): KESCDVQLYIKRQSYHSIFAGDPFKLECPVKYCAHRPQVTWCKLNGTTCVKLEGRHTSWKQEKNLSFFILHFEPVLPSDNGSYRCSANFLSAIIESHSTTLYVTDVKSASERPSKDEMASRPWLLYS

human BTLA(ECD)-HIS = biological target: T4, human BTLA(ECD)-HIS (human, UniProt Q7Z6A9 31-157); test: as above
T4 construct: extracellular domain; not shown: HIS tag

cynoBTLA-human Fc = biological target: T5, cynoBTLA-human Fc (cynomolgus, UniProt A0A2K5W7M7 31-151); test: blocking ELISA: cynoBTLA-human Fc binding to coated human HVEM-ratIgG2a
T5 construct: not shown: human Fc
T5 sequence (A0A2K5W7M7 entry or part of it): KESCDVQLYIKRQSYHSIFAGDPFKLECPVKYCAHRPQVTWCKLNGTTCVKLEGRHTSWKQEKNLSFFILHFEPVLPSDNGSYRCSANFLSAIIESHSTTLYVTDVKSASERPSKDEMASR

[2] = biological target: T6, human BTLA expressed on HEK-293 cells (human, UniProt Q7Z6A9 31-289); test: flow cytometry (MFI) on HEK 293 cells expressing BTLA
T6 construct: whole, on cells

[3] = biological target: T7, cynomolgus BTLA expressed on HEK-293 cells (cynomolgus, UniProt A0A2K5W7M7 31-289); test: as above
T7 construct: whole, on cells; also called Cyno BTLA
T7 sequence (A0A2K5W7M7 entry or part of it): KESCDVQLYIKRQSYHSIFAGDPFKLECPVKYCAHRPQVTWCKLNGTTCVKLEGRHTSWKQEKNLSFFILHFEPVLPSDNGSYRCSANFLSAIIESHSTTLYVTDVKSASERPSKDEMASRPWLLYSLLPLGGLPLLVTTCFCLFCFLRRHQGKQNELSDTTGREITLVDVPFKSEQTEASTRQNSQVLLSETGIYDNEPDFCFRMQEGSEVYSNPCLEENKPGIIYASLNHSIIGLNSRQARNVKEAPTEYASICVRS

B1: anti-BTLA antibody 15-C19A (antibody, V domains shown)
VH: QVQLQESGPGLVKPSETLSLTCTVSGGSISSYYWSWIRQPPGKGLEWIGYISYSGSTNYNPSLKSRVTISADTSKNQFSLKLSSVTAADTAVYYCARDFYYGMDVWGQGTTVTVSS
VL: AIQLTQSPSSLSASVGDRVTITCRASQGISSALAWYQQKPGKAPKLLIYDASSLESGVPSRFSGSGSGTDFTLTISSLQPEDFATYYCHQFDYYPTFGGGTKVEIK
Question: B1 was tested. Which Kd [1] did it give?
Answer: 0.1 nM

Question: And the Kd (recombinant human BTLA)?
Answer: 144 nM

Question: What about the IC50 (human BTLA-human Fc) of the same binder?
Answer: 3.5 nM

Question: What about the EC50 (cynomolgus BTLA(ECD)-HIS) of the same binder?
Answer: 1.4 nM

Question: What about the EC50 (human BTLA(ECD)-HIS) of the same binder?
Answer: 0.8 nM

Question: And the IC50 (cynoBTLA-human Fc)?
Answer: 2.4 nM

Question: What about the EC50 [2] of the same binder?
Answer: 5.5 nM

Question: And the EC50 [3]?
Answer: 4.4 nM
